In publication PMC6529640, “Bacterioferritin of Magnetospirillum gryphiswaldense Is a Heterotetraeicosameric Complex Composed of Functionally Distinct Subunits but Is Not Involved in Magnetite Biomineralization” (mBio, 2019):

Target: the molecule itself
Assay: native gel or EMSA; BN-PAGE of purified proteins on polyacrylamide gradient gels, run at 4°C, Coomassie stained; Bfr2 and Bfr12 ~22 μM, Bfr1 ~30 μM in 50 mM Tris-HCl, 50 mM NaCl, pH 8.0, or Bfr12 dialysed against 50 mM imidazole-HCl, 50 mM NaCl, pH 7; for Bfr12 also a second dimension of SDS-PAGE (2D-BN/SDS-PAGE)

B1: Bfr1 of MSR-1 expressed alone from pET-51b-Bfr1 (natural protein, Magnetospirillum gryphiswaldense MSR-1, UniProt A0ACM8UIY5 1-159, looked up)
chain: MRGSPKVISVLNGLLTGELTAADQYFVHARMLENWGFKVLYERIEHERHDELDHAGLLINRILFLEGVPDVASRAALNIGSDVPKMMANDLAYELQVVDELKAAIALCESERDYDTRRILVHLLEETEQDHVRWLEVQVGLIDKLGLKNYLQSAAGEIA
notes: bacterioferritin subunit Bfr1, Magnetospirillum gryphiswaldense MSR-1, locus MSR1_27050; expressed without Bfr2
- stoichiometry N: 3
